From publication PMC10501992, “How Pol α-primase is targeted to replisomes to prime eukaryotic DNA replication” (Molecular Cell, 2023) come the findings set out here.

Common to all, as to assay: cryo-EM structure; budding yeast replisome: 150 nM CMG on fork DNA (39 nt 3′ flap, 60 nt 5′ flap) with 1.5-fold molar excess of Tof1-Csm3, Mrc1 and Pol α-primase; 25 mM HEPES-NaOH pH 7.6, 150 mM NaOAc, 0.5 mM TCEP, 500 μM AMP-PNP, 10 mM Mg(OAc)2, on ice; 10-30% glycerol gradient with glutaraldehyde and BS3 cross-linkers
Data set [1] addresses T1, budding yeast CMG (Cdc45-Mcm2-7-GINS) replicative helicase (S. cerevisiae, UniProt Q08032 1-650; P29469 1-868; P24279 1-971; P30665 1-933; P29496 1-775; P53091 …).
T1 construct: Cdc45, S. cerevisiae; Mcm2, S. cerevisiae; Mcm3, S. cerevisiae; Mcm4, S. cerevisiae (named only within Mcm2-7); Mcm5, S. cerevisiae; Mcm6, S. cerevisiae (named only within Mcm2-7); Mcm7, S. cerevisiae (named only within Mcm2-7); Psf1, subunit of GINS, S. cerevisiae; Psf2, subunit of GINS, S. cerevisiae; Sld5, subunit of GINS, S. cerevisiae; source: S. cerevisiae strain yJY197, expressed and …
The note with it: both partners purified.

Data set [2] concerns the target T2, Tof1 (budding yeast) (S. cerevisiae, UniProt P53840 1-1238).
T2 construct: Tof1, S. cerevisiae; stood in the assay as a subunit of m13; source: subunit of Tof1-Csm3 from S. cerevisiae strain yAE48, purified as described previously
T2 sequence: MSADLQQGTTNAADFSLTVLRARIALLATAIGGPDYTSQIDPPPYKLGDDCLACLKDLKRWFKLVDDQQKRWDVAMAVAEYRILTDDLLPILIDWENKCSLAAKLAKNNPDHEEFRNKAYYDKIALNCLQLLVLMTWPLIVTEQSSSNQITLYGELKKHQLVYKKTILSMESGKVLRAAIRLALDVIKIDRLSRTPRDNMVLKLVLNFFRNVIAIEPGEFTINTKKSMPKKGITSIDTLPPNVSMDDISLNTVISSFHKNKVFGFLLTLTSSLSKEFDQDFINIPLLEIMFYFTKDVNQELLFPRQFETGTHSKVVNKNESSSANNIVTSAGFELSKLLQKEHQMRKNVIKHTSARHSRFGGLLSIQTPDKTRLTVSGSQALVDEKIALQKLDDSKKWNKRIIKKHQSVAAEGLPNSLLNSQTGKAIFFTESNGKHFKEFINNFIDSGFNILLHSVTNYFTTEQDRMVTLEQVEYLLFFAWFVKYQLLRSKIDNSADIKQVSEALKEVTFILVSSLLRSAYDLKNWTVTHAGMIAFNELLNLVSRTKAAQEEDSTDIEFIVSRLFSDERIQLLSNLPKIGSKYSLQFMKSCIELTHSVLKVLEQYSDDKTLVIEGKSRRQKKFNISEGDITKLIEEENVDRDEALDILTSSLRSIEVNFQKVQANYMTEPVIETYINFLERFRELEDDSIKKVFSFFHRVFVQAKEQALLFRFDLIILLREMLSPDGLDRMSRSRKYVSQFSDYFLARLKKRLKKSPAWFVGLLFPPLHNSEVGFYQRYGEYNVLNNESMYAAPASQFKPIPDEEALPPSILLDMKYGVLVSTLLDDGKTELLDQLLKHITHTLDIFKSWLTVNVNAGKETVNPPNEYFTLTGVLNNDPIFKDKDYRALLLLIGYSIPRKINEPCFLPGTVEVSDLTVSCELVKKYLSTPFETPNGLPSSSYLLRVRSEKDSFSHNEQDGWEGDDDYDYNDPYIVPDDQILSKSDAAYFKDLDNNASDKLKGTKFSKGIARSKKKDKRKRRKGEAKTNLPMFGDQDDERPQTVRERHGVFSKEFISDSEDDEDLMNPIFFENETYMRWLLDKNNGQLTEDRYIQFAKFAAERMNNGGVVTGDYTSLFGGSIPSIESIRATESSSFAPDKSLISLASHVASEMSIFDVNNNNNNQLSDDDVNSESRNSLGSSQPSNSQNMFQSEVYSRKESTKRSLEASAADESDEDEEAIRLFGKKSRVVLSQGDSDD
The note with it: both partners purified.

Data set [3] concerns the molecule itself.
In data set [4] the target is T3, Pol1 (budding yeast Pol α catalytic subunit) (S. cerevisiae, UniProt P13382 1-1468).
T3 construct: Pol1, S. cerevisiae; modelled: CTD 1271-1468 and CIP box F140-S149; stood in the assay as a subunit of m1; also called Pol1CTD; Pol1CIP; source: subunit of Pol α-primase from S. cerevisiae strain yAE95, purified as described previously
T3 sequence: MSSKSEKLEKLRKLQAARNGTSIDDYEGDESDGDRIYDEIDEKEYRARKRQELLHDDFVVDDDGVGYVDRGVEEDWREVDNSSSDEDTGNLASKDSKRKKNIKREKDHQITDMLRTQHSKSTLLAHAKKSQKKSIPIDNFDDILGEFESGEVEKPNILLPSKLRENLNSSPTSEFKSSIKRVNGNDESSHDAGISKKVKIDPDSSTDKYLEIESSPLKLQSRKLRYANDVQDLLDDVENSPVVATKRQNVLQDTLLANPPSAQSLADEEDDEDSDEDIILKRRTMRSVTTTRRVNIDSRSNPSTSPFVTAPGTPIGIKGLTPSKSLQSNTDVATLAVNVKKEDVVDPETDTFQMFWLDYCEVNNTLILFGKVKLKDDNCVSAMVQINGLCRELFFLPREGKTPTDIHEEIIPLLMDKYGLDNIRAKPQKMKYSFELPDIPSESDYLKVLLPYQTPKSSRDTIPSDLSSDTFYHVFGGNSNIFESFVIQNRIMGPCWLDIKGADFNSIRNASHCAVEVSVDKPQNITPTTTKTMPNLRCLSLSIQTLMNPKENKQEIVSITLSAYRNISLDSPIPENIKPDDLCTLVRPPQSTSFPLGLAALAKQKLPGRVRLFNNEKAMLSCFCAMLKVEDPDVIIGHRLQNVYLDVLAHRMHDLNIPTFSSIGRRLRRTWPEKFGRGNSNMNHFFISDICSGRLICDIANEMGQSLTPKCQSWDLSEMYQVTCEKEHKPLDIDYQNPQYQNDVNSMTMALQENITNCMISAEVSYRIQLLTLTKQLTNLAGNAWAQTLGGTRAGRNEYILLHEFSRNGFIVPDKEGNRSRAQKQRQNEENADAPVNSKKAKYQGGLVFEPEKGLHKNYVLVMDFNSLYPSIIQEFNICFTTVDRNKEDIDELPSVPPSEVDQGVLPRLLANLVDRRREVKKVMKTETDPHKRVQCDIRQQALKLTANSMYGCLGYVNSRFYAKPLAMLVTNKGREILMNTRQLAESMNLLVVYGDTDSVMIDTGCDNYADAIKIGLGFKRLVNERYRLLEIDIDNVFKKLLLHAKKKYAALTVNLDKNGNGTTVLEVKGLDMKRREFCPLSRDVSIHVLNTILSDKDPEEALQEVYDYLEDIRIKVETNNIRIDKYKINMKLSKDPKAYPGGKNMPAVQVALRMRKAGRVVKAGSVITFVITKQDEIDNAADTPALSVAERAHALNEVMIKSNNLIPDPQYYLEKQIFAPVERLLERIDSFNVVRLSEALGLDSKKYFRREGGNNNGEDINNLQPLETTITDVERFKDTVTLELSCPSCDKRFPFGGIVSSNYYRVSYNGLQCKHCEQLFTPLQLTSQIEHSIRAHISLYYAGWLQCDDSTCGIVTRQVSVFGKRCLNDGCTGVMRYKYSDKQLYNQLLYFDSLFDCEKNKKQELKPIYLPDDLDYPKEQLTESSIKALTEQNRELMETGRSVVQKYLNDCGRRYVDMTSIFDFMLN
The note with it: both partners purified.

B1: Mrc1 (budding yeast) (natural protein, S. cerevisiae)
chain: MDDALHALSSLTAKKRTTTYKKVAVPILDENDNTNGNGPNDIDNPPELTGNGFLFANATLNRVKNRLEGKKAPEQNHNNGKDRSENSLPTQLISNLYDGGEELEKSEVKDNSYSEKNVSSSFTQTQRIPVSIQQDKVFNVPIHSVNDGKPTQLIKEDGLVNETSQALKTPLTTGRPGATQRIDSSGATSQTQPIKSIEPQSQIITTSSNHSNALSPKIPIIPTELIGTSPLFQSIQNRGPDTQMDVPPQTAHDEDKTQAIGIPQATHQEQKTQIDTVAQTLQDEVPHTLKIREIQSELASEDSKREKARNVEYKKPQKPIPTKKFFSKESFLADFDDSSSNEDDDIKLENAHPKPVQNDDELHENKSVELNLTDETRINEKRVPLLSSYANNLKREIDSSKCITLDLDSDSDEYGDDDMDSIKLSKDESVLPISQLSKATILNLKARLSKQNQKLSQRPNKSKDPKVDHNVLLNTLRKASRKQILDHQKEVIETKGLKLEDMAKEKEIVENLLEQEILRNKRIRQKEKRREKLEENDFQLNAHDSGSDSGSESSGFALSGNEIADYESSGSENDNRRESDSEKEDDEIILKQKKSHHVKHIINESDSDTEVEAKPKEKADESLPKRIAINLGHYGDNIGEDTDKFQETNVLDTQNIEEVMAERNTIENEVKDDVYVNEEADEAIRRQLIDKEKLQLKQKEKEHEAKIKELKKRGVTNFFEMEAEESEDEWHGIGGADGEGSDDYDSDLEKMIDDYSKNNFNPHEIREMLAAENKEMDIKMINKILYDIKNGGFRNKRAKNSLELELSDDDEDDVLQQYRLKRRELMRKRRLEIGDDAKLVKNPKSSAFFESMVEDIIEYKNPFGAEEEYNLDITSTATDLDTQDNSINVGDNTGNNEQKPVDQKNKKVIISEDFVQKSLSFLKSNNYEDFETDKELSRIQHGNDEAIEDLYTLKQNSSIKSFTNSQTDSTTSKTVNTIIDLEKRPEDEDEVENGDTSLVGVFKHPSIIKSFASRTDINDKFKEGNKTVKILKSYKTVGSSKASITYMGKTRKLIAPKRKTEGSHRYHHDHHNKKMKMKTKTKSNKLFESGQDSFDN
notes: Mrc1, S. cerevisiae; several small sections modelled (S339-K323 as printed, D468-Q483, N842-E858); source: S. cerevisiae strain yJY32, expressed and purified as described previously
Consider B1, for which the binding result in data set [1] and in data set [2] was “binds” throughout.

B2: Ctf4 (budding yeast) (natural protein, UniProt Q01454 1-927, looked up)
chain: MVSVIDKLVFDFGGKTLVSLAPDNNTLCVANKNGLTKILKTNNPEEEPETLDSSKLVSSIKCYSNSHFLMTTMQGDALRYNIDSSQEELLARFALPLRDCCVIHSGKMAVFGGDDLELILLELDDETHKKHAIKIDEQVSQISYNSQMNILAVSMINGKVQIFSLTSTIPNKVHELNDYIVANSYDDTHRDKILSNMMDDIDKDNDNDLSETADPDENNVADPEFCAANRICTRVAWHPKGLHFALPCADDTVKIFSIKGYSLQKTLSTNLSSTKAHFIDLQFDPLRGTYIAAVDLNNKLTVWNWETSEIHYTREFKRKITNIAWKIQADSKTLDLVLGTWSGSIAIVQNLAESVVSNIPDQSVAESSTKHGLFVDSESDLENLEGNDDINKSDKLFSDITQEANAEDVFTQTHDGPSGLSEKRKYNFEDEEDFIDDDDGAGYISGKKPHNEHSYSRVHKTHSFPISLANTGKFRYMPFSPAGTPFGFTDRRYLTMNEVGYVSTVKNSEQYSITVSFFDVGRFREYHFEDLFGYDLCFLNEKGTLFGQSKTGQIQYRPHDSIHSNWTKIIPLQAGERITSVAATPVRVIVGTSLGYFRSFNQFGVPFAVEKTSPIVALTAQNYRVFSVHYSQFHGLSYSLSELGTSSKRYYKRECPLPMSLPNINSDMKKDANLDYYNFNPMGIKSLFFSSYGDPCIFGSDNTLLLLSKWRSPEESKWLPILDSNMEIWKMSGGKETTDIHVWPLALAYDTLNCILVKGKHIWPEFPLPLPSEMEIRMPVFVKSKLLEENKAILNKKNEIGADTEAEEGEEDKEIQIPVSMAAEEEYLRSKVLSELLTDTLENDGEMYGNENEVLAALNGAYDKALLRLFASACSDQNVEKALSLAHELKQDRALTAAVKISERAELPSLVKKINNIREARYEQQLK
notes: Ctf4, S. cerevisiae; the results say that Ctf4 was not added to the yeast reconstitution; the general method lists Ctf4/AND-1 among the proteins added; source: endogenous Ctf4 likely co-purifying with CMG from S. cerevisiae
The term stoichiometry N denotes the number of molecules, sites or subunits per partner or assembly. Regarding B2, the binding result in data set [1] and in data set [4] was “binds” in each case. Besides, the “stoichiometry N” value in data set [3] is 3.
